Literature values as cited in paper PMC12428796.

Experiments:
Conditions in all cases: No direct protein-aptamer binding assay in this paper (only cell uptake by flow cytometry/confocal in MIA PaCa-2 and L929, with anti-nucleolin blocking)
[1] = biological target: transferrin receptor 1 (TfR1) (UniProt P02786)
[2] = biological target: matrix metalloproteinase 14 (MMP14) (UniProt P50281)
[3] = biological target: T1, cholecystokinin B receptor (CCKBR) (UniProt P32239)
T1 sequence (P32239 whole entry, looked up): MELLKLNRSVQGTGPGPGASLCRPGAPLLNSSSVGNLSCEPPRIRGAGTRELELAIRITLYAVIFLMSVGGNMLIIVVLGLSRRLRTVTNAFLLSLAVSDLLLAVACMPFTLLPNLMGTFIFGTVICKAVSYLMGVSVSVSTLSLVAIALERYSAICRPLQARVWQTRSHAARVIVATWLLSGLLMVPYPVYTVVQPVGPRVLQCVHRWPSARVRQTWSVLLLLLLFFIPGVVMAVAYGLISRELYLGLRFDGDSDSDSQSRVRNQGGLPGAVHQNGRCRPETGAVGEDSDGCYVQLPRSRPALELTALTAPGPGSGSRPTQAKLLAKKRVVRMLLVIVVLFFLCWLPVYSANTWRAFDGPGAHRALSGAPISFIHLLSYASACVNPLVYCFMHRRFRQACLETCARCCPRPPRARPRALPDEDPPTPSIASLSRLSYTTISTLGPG

nucleolin = nucleolin (UniProt P19338)
nucleolin, sequence (P19338 whole entry): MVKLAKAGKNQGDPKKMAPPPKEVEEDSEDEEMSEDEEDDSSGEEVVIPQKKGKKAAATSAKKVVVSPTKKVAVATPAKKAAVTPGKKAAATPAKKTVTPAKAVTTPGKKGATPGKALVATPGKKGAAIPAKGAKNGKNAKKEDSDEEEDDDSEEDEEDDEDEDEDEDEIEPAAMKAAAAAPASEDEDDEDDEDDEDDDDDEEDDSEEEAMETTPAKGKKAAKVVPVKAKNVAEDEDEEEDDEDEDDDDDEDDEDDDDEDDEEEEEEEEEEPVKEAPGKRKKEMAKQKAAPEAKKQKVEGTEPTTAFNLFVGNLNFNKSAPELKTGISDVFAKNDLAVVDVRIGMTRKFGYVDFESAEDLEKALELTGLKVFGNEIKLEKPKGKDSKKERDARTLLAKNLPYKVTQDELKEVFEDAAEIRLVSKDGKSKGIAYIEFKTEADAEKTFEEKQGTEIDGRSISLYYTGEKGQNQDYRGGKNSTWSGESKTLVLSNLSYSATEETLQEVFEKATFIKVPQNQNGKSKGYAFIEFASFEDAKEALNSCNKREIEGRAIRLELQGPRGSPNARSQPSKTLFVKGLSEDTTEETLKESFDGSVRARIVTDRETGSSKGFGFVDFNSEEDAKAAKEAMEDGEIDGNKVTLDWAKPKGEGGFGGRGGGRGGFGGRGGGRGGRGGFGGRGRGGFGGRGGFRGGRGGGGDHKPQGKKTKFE

transferrin receptor 1 (TfR1), sequence (P02786 whole entry): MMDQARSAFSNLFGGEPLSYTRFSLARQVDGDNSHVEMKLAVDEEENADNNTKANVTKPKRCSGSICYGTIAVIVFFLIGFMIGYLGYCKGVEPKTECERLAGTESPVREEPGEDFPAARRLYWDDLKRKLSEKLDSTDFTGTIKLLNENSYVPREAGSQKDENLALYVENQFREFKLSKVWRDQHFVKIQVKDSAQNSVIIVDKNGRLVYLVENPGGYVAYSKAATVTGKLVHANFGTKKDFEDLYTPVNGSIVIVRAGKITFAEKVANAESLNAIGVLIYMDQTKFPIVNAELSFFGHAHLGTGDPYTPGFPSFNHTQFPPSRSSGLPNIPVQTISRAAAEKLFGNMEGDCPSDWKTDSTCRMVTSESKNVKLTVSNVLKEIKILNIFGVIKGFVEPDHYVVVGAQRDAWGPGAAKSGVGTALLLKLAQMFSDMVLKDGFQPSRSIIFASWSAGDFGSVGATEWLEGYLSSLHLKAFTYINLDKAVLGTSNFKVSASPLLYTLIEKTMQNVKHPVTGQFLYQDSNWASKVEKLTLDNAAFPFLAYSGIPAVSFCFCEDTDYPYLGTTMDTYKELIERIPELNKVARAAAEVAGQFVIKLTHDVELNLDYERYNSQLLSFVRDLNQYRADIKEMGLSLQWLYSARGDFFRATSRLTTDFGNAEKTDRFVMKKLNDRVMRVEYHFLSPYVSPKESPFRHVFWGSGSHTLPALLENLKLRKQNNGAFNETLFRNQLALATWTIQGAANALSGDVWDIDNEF

Sequence: ACTCATAGGGTTAGGGGCTGCTGGCCAGATACTCAGATGGTAGGGTTACTATGAGC [XQ-2D]
- Kd [1]: 55 nM

Sequence: AGGGCCCGACGTGACGGCACGTCGGATATCTCATGCGTGT [M17]
- Kd [2]: 4.98 nM

Sequence: CATGGTGCAGGTGTGGCTGGGATTCATTTGCCGGTGCTGGTGCGTCCGCGGCCGCTAATCCTGTTC [AP1153]
- Kd [3]: 0.206 nM

Sequence: GGTGGTGGTGGTGTTGGTGGTGGTGG [AS1411]
- Kd (nucleolin): 16.4 nM
